Data: patent US20060263802A1 (CRUCELL HOLLAND B V, published 2006)

Experiments:
Assay in all cases: PEPSCAN ELISA, looped 15-mer, 10 ug/ml
[1] = molecular target: looped peptide … (rabies virus strain ERA)
[2] = molecular target: looped peptide … (rabies virus strain ERA); remark: listed apart in the source
[3] = molecular target: looped peptide … (rabies virus strain ERA); remark: listed apart in the source
[4] = molecular target: looped peptide … (rabies virus strain ERA); remark: listed apart in the source
[5] = molecular target: looped peptide … (rabies virus strain ERA); remark: listed apart in the source
[6] = molecular target: looped peptide … (rabies virus strain ERA); remark: listed apart in the source
[7] = molecular target: looped peptide … (rabies virus strain ERA); remark: listed apart in the source
[8] = molecular target: looped peptide … (rabies virus strain ERA); remark: listed apart in the source
[9] = molecular target: looped peptide … (rabies virus strain ERA); remark: listed apart in the source
[10] = molecular target: looped peptide … (rabies virus strain ERA); remark: listed apart in the source
[11] = molecular target: looped peptide … (rabies virus strain ERA); remark: listed apart in the source
[12] = molecular target: looped peptide … (rabies virus strain ERA); remark: listed apart in the source
[13] = molecular target: looped peptide … (rabies virus strain ERA); remark: listed apart in the source
[14] = molecular target: looped peptide … (rabies virus strain ERA); remark: listed apart in the source
[15] = molecular target: looped peptide … (rabies virus strain ERA); remark: listed apart in the source
[16] = molecular target: looped peptide … (rabies virus strain ERA); remark: listed apart in the source
[17] = molecular target: looped peptide … (rabies virus strain ERA); remark: listed apart in the source
[18] = molecular target: looped peptide … (rabies virus strain ERA); remark: listed apart in the source
[19] = molecular target: looped peptide … (rabies virus strain ERA); remark: listed apart in the source
[20] = molecular target: looped peptide … (rabies virus strain ERA); remark: listed apart in the source
[21] = molecular target: looped peptide … (rabies virus strain ERA); remark: listed apart in the source
[22] = molecular target: looped peptide … (rabies virus strain ERA); remark: listed apart in the source
[23] = molecular target: looped peptide … (rabies virus strain ERA); remark: listed apart in the source
[24] = molecular target: looped peptide … (rabies virus strain ERA); remark: listed apart in the source
[25] = molecular target: looped peptide … (rabies virus strain ERA); remark: listed apart in the source
[26] = molecular target: looped peptide … (rabies virus strain ERA); remark: listed apart in the source
[27] = molecular target: looped peptide … (rabies virus strain ERA); remark: listed apart in the source
[28] = molecular target: looped peptide … (rabies virus strain ERA); remark: listed apart in the source
[29] = molecular target: looped peptide … (rabies virus strain ERA); remark: listed apart in the source
[30] = molecular target: looped peptide … (rabies virus strain ERA); remark: listed apart in the source
[31] = molecular target: looped peptide … (rabies virus strain ERA); remark: listed apart in the source
[32] = molecular target: looped peptide … (rabies virus strain ERA); remark: listed apart in the source
[33] = molecular target: looped peptide … (rabies virus strain ERA); remark: listed apart in the source
[34] = molecular target: looped peptide … (rabies virus strain ERA); remark: listed apart in the source
[35] = molecular target: looped peptide … (rabies virus strain ERA); remark: listed apart in the source
[36] = molecular target: looped peptide … (rabies virus strain ERA); remark: listed apart in the source
[37] = molecular target: looped peptide … (rabies virus strain ERA); remark: listed apart in the source
[38] = molecular target: looped peptide … (rabies virus strain ERA); remark: listed apart in the source
[39] = molecular target: looped peptide … (rabies virus strain ERA); remark: listed apart in the source
[40] = molecular target: looped peptide … (rabies virus strain ERA); remark: listed apart in the source
[41] = molecular target: looped peptide … (rabies virus strain ERA); remark: listed apart in the source
[42] = molecular target: looped peptide … (rabies virus strain ERA); remark: listed apart in the source
[43] = molecular target: looped peptide … (rabies virus strain ERA); remark: listed apart in the source
[44] = molecular target: looped peptide … (rabies virus strain ERA); remark: listed apart in the source
[45] = molecular target: looped peptide … (rabies virus strain ERA); remark: listed apart in the source
[46] = molecular target: looped peptide … (rabies virus strain ERA); remark: listed apart in the source
[47] = molecular target: looped peptide … (rabies virus strain ERA); remark: listed apart in the source
[48] = molecular target: looped peptide … (rabies virus strain ERA); remark: listed apart in the source
[49] = molecular target: looped peptide … (rabies virus strain ERA); remark: listed apart in the source
[50] = molecular target: looped peptide … (rabies virus strain ERA); remark: listed apart in the source
[51] = molecular target: looped peptide … (rabies virus strain ERA); remark: listed apart in the source
[52] = molecular target: looped peptide … (rabies virus strain ERA); remark: listed apart in the source
[53] = molecular target: looped peptide … (rabies virus strain ERA); remark: listed apart in the source
[54] = molecular target: looped peptide … (rabies virus strain ERA); remark: listed apart in the source
[55] = molecular target: looped peptide … (rabies virus strain ERA); remark: listed apart in the source
[56] = molecular target: looped peptide … (rabies virus strain ERA); remark: listed apart in the source
[57] = molecular target: looped peptide … (rabies virus strain ERA); remark: listed apart in the source
[58] = molecular target: looped peptide … (rabies virus strain ERA); remark: listed apart in the source
[59] = molecular target: looped peptide … (rabies virus strain ERA); remark: listed apart in the source
[60] = molecular target: looped peptide … (rabies virus strain ERA); remark: listed apart in the source
[61] = molecular target: looped peptide … (rabies virus strain ERA); remark: listed apart in the source
[62] = molecular target: looped peptide … (rabies virus strain ERA); remark: listed apart in the source
[63] = molecular target: looped peptide … (rabies virus strain ERA); remark: listed apart in the source
[64] = molecular target: looped peptide … (rabies virus strain ERA); remark: listed apart in the source
[65] = molecular target: looped peptide … (rabies virus strain ERA); remark: listed apart in the source
[66] = molecular target: looped peptide … (rabies virus strain ERA); remark: listed apart in the source
[67] = molecular target: looped peptide … (rabies virus strain ERA); remark: listed apart in the source

B1: human monoclonal antibody CRJB (antibody, V domains shown)
VH: QITLKETGPTLVKPTQTLTLTCTFSGFSLSTSGVGVGWIRQPPGKALEWVTLIYWDDDKRYSPSLENRVTIRKDTSKNQVALTMTNMDPLDTGTYYCAHRQHISSFPWFDSWGQGTLVTVSS
VL: SYVLTQPPSVSVAPGKTARINCGGNNIEYRSVHWYQQKSGQAPVAVIYDNSDRPSGIPERFSGSKSGNTATLTISRVEAGDEADYYCQVWDISSDVVFGGGTKLTVLG
OD value [1]: 68 | OD value [2]: 75 | OD value [3]: 82 | OD value [4]: 88 | OD value [5]: 83 | OD value [6]: 75 | OD value [7]: 90 | OD value [8]: 76 | OD value [9]: 57 | OD value [10]: 97 | OD value [11]: 71 | OD value [12]: 93 | OD value [13]: 44 | OD value [14]: 104 | OD value [15]: 82 | OD value [16]: 23 | OD value [17]: 111 | OD value [18]: 100 | OD value [19]: 89 | OD value [20]: 62 | OD value [21]: 96 | OD value [22]: 90 | OD value [23]: 76 | OD value [24]: 78 | OD value [25]: 65 | OD value [26]: 105 | OD value [27]: 60 | OD value [28]: 27 | OD value [29]: 34 | OD value [30]: 66 | OD value [31]: 82 | OD value [32]: 80 | OD value [33]: 88 | OD value [34]: 68 | OD value [35]: 104 | OD value [36]: 79 | OD value [37]: 80 | OD value [38]: 82 | OD value [39]: 79 | OD value [40]: 66 | OD value [41]: 79 | OD value [42]: 27 | OD value [43]: 101 | OD value [44]: 78 | OD value [45]: 93 | OD value [46]: 72 | OD value [47]: 85 | OD value [48]: 91 | OD value [49]: 108 | OD value [50]: 123 | OD value [51]: 106 | OD value [52]: 103 | OD value [53]: 97 | OD value [54]: 83 | OD value [55]: 62 | OD value [56]: 78 | OD value [57]: 89 | OD value [58]: 58 | OD value [59]: 76 | OD value [60]: 54 | OD value [61]: 79 | OD value [62]: 57 | OD value [63]: 74 | OD value [64]: 55 | OD value [65]: 72 | OD value [66]: 72 | OD value [67]: 64
